According to CN114989291A (ZHEJIANG ANWEILUO DIAGNOSTIC TECH CO LTD, dated 2022):

How the values were obtained:
Assay in all cases: cell-based or functional assay
[1] = target: SARS-CoV-2 S蛋白, 突变株 B.1.1.7 (SARS-CoV-2)
[2] = target: SARS-CoV-2 S蛋白, 突变株 B.1.525 (SARS-CoV-2)
[3] = target: SARS-CoV-2 S蛋白, 突变株 P.1 (SARS-CoV-2)
[4] = target: SARS-CoV-2 S蛋白, 突变株 B.1.617.2 (SARS-CoV-2)
[5] = target: SARS-CoV-2 S蛋白, 突变株 B.1.351 (SARS-CoV-2)

B1: 抗SARS-CoV-2全人源化单克隆抗体1B3 (antibody, V domains shown)
VH: VQLVESGGGVVQPGRSLRLSCAASGFTFSSYAMHWVRQAPGKGLEWVAVISYDGSNKYYADSVKGRFTISRDNSKNTLYLQMNSLRAEDTAVYYCAKVAGGPYYYDSSGRDWYFDLWGRGTLVTVSA
VL: DIQMTQSPSSLSASVGDRVSITCRASQSISSFLNWFQQKPGKAPNLLIYAASSLESGVPSRFSGSGSGTDFTLTISSLQPEDFATYYCQQSYSAPPTFGQGTRLEIKR
With B1 the “EC50, 假病毒细胞模型中和活性 (luciferase, ACE2-293T细胞)” value (shortened to “EC50, 假病毒细胞模型中和活性”) [1] was 2.51 µg/mL, the “EC50, 假病毒细胞模型中和活性” value [2] was 1.7 µg/mL and the “EC50, 假病毒细胞模型中和活性” value [3] was 3.83 µg/mL. The “EC50, 假病毒细胞模型中和活性” value [4] was 1.69 µg/mL and the “EC50, 假病毒细胞模型中和活性” value [5] was 2.05 µg/mL.
